Earlier results on one substance are cited in article PMC3890242.

This data set concerns the target Tyr57 (UniProt position 57, QIAAFYRQGLG). Nature of the data set: UV-vis. The conditions noted are these: unliganded D40N pKSI.

What is called pKa is the pH at which an ionisable group is half protonated. Take “Ketosteroid isomerase (pKSI) D40N (Pseudomonas putida; D40N)”: the pKa is 6.3 ± 0.1.
